Laboratory results as given in paper PMC10607743, “An Enzymatic Strategy for the Selective Methylation of High-Value-Added Tetrahydroprotoberberine Alkaloids” (International Journal of Molecular Sciences, 2023).

What was measured:
[1] = system: Oc1cc2c(cc1O)C1Cc3ccc(O)c(O)c3CN1CC2; assay: purified protein; conditions: 100 mM Tris-HCl, 37 °C, substrate 50-500 μM, methyl donor SAM (concentration and pH not given)
PsSOMT = biological target: T1, PsSOMT (Papaver somniferum, UniProt I3PLQ7); conditions: 100 mM Tris-HCl, 37 °C, substrate 50-500 μM; methyl donor SAM (concentration and pH not given)
T1 construct: gene SOMT3
T1 sequence (I3PLQ7 whole entry): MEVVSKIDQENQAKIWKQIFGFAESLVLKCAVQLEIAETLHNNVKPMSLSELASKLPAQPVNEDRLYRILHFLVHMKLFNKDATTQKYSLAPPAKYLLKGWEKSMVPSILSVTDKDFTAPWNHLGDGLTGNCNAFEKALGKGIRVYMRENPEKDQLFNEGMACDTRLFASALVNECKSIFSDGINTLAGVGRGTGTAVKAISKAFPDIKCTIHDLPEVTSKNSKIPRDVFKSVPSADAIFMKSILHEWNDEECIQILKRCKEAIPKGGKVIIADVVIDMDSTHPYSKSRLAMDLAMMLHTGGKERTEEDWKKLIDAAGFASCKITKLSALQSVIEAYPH

Compound	Km [1] [µM]	Vmax [1] [µmol/min/mg]	kcat [1] [s⁻¹]	kcat/Km [1] [M⁻¹ s⁻¹]	Km (PsSOMT) [µM]
Cj4’OMT (Coptis japonica)	83.50 ± 19.72	1.09	1.09 ± 0.08	13000	
Oc1cc2c(cc1O)C1Cc3ccc(O)c(O)c3CN1CC2 (centres unmarked) [2,3,9,10-tetrahydroxyberbine]					53.8 ± 12
